US20240277803A1, “NME INHIBITORS AND METHODS OF USING NME INHIBITORS” (Minerva Biotechnologies Corporation, priority 2013, published 2024)
Read-outs that look alike come from different tables or passages of the source.

How the values were obtained:
[1] = tested on: human stem cells; assay: human stem cell culture in NME1 dimers or hexamers (FIG. 17D-G); type: cell-based
Source text: (§1) By contrast, NME1 is roughly half the molecular weight of NME7 (˜17 kDa) and has only one NDPK domain. NME1 acts as a growth factor that promotes growth and inhibits differentiation only when it is a dimer. At higher concentrations, NME1 can form hexamers. […] Thus, NME1, which is expressed later in embryogenesis, has the ability to turn itself off, thus limiting self-replication, while NME7 cannot. Wild type (wt) NME1 exists primarily as a hexamer at measurable concentrations. Mutant NME1 proteins, such as S120G that form stable dimer populations have been isolated from cancers and thus are continuously activating the MUC1* receptor. We made recombinant NME1-wt, and the S120G mutant. By varying refolding protocols we were able to stabilize populations that were essentially 100% hexamer or 100% dimer. In addition we isolated populations of NME1-S120G that were a mixture of dimer, tetramer and hexamer. […] In nature, when the concentration of stem cells reaches critical mass and their secretions of NME1 reaches the concentration at which they form hexamers, differentiation is induced. FIG. 18 is a cartoon depicting the mechanism, supported by experiments described herein, by which NME7 and NME1 function to promote pluripotency wherein NME1 regulates itself.

[2] = tested on: Human stem cells (iPS); assay: human iPS stem cell culture in NME7-AB or NM23-H1 dimers; type: cell-based; settings: 8 nM in minimal media over MN-C3 surface
Method: Testing recombinant NME7 for ability to maintain pluripotency and inhibit differentiation. A soluble variant of NME7, NME7-AB, was generated and purified. Human stem cells (iPS cat #SC101a-1, System Biosciences) were grown per the manufacturer's directions in 4 ng/ml bFGF over a layer of mouse fibroblast feeder cells for four passages. These source stem cells were then plated into 6-well cell culture plates (Vita™, Thermo Fisher) that had been coated with 12.5 ug/well of a monoclonal anti-MUC1* antibody, MN-C3. Cells were plated at a density of 300,000 cells per well. The base media was Minimal Stem Cell Media consisting of: 400 ml DME/F12/GlutaMAX I (Invitrogen #10565-018), 100 ml Knockout Serum Replacement (KO-SR, Invitrogen #10828-028), 5 ml 100×MEM Non-essential Amino Acid Solution (Invitrogen#11140-050) and 0.9 ml (0.1 mM) β-mercaptoethanol (55 mM stock, Invitrogen #21985-023). The base media can be any media. In a preferred embodiment, the base media is free of other growth factors and cytokines. To the base media was added either 8 nM of NME7-AB or 8 nM NM23-H1 refolded and purified as stable dimers. Media was changed every 48 hours and due to accelerated growth had to be harvested and passaged at Day 3 post-plating. FIGS. 9 and 10 document the day by day comparison of growth in NM23-H1 dimers to growth in NME7 monomers. […] Cell counts at the first harvest verified that culture in NME7 produced 1.4-times more cells than culture in NM23-H1 dimers.

[3] = target: T1, MUC1* extra cellular domain peptide (Homo sapiens, UniProt P15941); assay: gold nanoparticle binding assay, NME7 and MUC1* peptide (FIG. 7); settings: protein added free in solution
T1 sequence (P15941 with tags, fused parts or gaps): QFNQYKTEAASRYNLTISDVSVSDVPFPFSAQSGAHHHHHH
Method: Gold nanoparticles of a diameter of 30.0 nm were coated with an NTA-SAM surface according to Thompson et al. (ACS Appl. Mater. Interfaces, 2011, 3 (8), pp 2979-2987). The NTA-SAM coated gold nanoparticles were then activated with an equal volume of 180 uM NiSO4, incubated for 10 min at room temperature, washed, and resuspended in a 10 mM phosphate buffer ([…]). The gold nanoparticles were then loaded with PSMGER N-10 peptide ([…] (SEQ ID NO:155)) at 0.5 uM final concentration, and incubated at room temperature for 10 min. Recombinant NME7-AB protein expressed and purified from E. coli was added free in solution at the concentrations indicated. When particle-immobilized proteins bind to each other, or simultaneously bind to two different peptides on two different particles, the particle solution color changes from pink/red to purple/blue. If the protein added free in solution causes particle aggregation, it is strong evidence that the free protein dimerizes the cognate peptide, since binding to a single peptide would not induce two or more particles to be brought into close proximity to each other.
The NME7-AB is added free in solution at the concentrations indicated. Solution color change from pink to purple/blue from particle aggregation indicates binding between the MUC1* peptide on the particles and NME7 free in solution. […] Particle aggregation, indicating NME7 can simultaneously bind to two peptides is observed. […] The T47D breast cancer cell line Lysate, which contains native NME7 turns noticeably purple also.

[4] = target: T2, PSMGFR peptide of the MUC1* extracellular domain (Homo sapiens, UniProt P15941); assay: SPR and nanoparticle binding of NME1 multimers to PSMGFR peptide (FIG. 17); parameters: the PSMGFR peptide of the MUC1* extracellular domain is immobilized on the chip; settings: for binding to MUC1* extracellular domain peptide (PSMGFR): SPR chip or gold nanoparticles
T2 sequence (P15941 1110-1154 limits assumed): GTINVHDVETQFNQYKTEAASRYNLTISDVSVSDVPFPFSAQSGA
Source text: MUC1* extra cellular domain peptide was immobilized onto gold nanoparticles.
as §1

[5] = target: T2, PSMGFR peptide of the MUC1* extracellular domain; assay: ELISA of NME6 binding to PSMGFR peptide (FIG. 19)
Source text: NME6 is also expressed in very early embryogenesis. NME6 is reportedly a dimer in some species such as sea sponge. NME6 must be expressed at high enough levels that it can form dimers before it can activate growth and inhibit differentiation. Thus, it is expressed at a later stage than NME7. […] We made recombinant NME6 as the wild type protein, or with a single point mutation S139G, which mimics the S120G mutation that causes NME1 to prefer dimer formation. In addition, another NME6 variant was made so that in this sensitive area, the human NME6 would look like sea sponge NME6, which reportedly exists as a dimer. These mutations are S139A plus V142D and V143A. […] In part A, NME6-wt is purified as the monomer or as a high molecular weight multimer. […] In part B, the NME6 multimers are dissociated by dilution in SDS. […] The gels of FIG. 19 D-H show expression of NME6-wt (D), NME6 with the S139G mutation that corresponds to the mutation S120G which in human NME1 increases dimer formation (E), NME6 bearing three mutations that make the human form mimic the sea sponge form that is reported to be a dimer (F), and a single chain protein linking two NME6 proteins (G,H). […] Thus an effective anti-cancer agent would be an antibody, small molecule or other agent that disrupts binding of NME6 dimers to MUC1* extra cellular domain peptide. […]

Row | binding to MUC1* extracellular domain peptide (PSMGFR) ([4]; listed as NM23 dimers) | binding to MUC1* extracellular domain peptide (PSMGFR) ([4]; listed as dimer form of NME1) | binding to PSMGFR peptide (ELISA) [5] | binding to PSMGFR peptide (ELISA) ([5]; listed as NME6 monomer) | Substance | pluripotent stem cell growth / differentiation [1] | stem cell growth, pluripotency and differentiation [2] | binding to MUC1* peptide on nanoparticles (color change pink to purple/blue) [3] | binding to N-10 version of the PSMGFR peptide ([4]; first 10 amino acids of PSMGFR omitted)
1 |  |  |  |  | NME1 hexamers: recombinant NME1 in hexamer form | induce differentiation |  |  | 
2 | bind to the cognate receptor MUC1* | binds to the MUC1* extracellular domain |  |  | NME1 dimers: recombinant NME1 (NM23-H1) S120G mutant refolded and purified as stable dimers | promote pluripotent stem cell growth | no differentiation | began to change almost immediately to purple | bind to the N-10 version of the PSMGFR peptide
3 |  |  | binds to the PSMGFR peptide | preferential binding | NME6: recombinant human NME6 wild type protein |  |  |  | 
